Laboratory results reported in the Human Domainome abundance scans (Beltran et al. 2025).

B1: RAS guanyl-releasing protein 1, residues 539 to 593; numbered along this chain, O95267 (parent)
chain: GFPHNFQETTYLKPTFCDNCAGFLWGVIKQGYRCKDCGMNCHKQCKDLVVFECKK

Variants of: B1
Assay: abundance fitness (aPCA) (normalised: wild type 0, dead -1); higher = more abundant; growth selection in yeast, the domain comes from the species named
Settings: Homo sapiens

Abundance fitness, by site and new letter:
K29: A -0.124 | T -0.289 | F -0.224 | Y -0.011 | S -0.086 | I -0.252 | E -0.386 | D -0.618 | M -0.052 | N 0.013 | H -0.108 | V -0.289 | W -0.256 | P -0.556 | R -0.103 | C -0.171
G31: P -1.08 | H -0.559 | M -0.461 | A -0.092 | D -0.597 | C -0.352 | R -0.719 | V -0.479 | K -0.748 | N -0.717 | E -0.414 | L -0.663 | S -0.482 | F -0.205 | Y -0.06 | I -0.685 | W -0.901
Y32: P -0.883 | F -0.312 | M -0.101 | D -0.224 | W -0.068 | Q -0.536 | I -0.184 | G -0.186 | L -0.104 | S -0.026 | E -0.166 | C -0.059 | T 0.093 | A -0.171 | R -0.393 | K -0.132 | V -0.007 | H -0.132
R33: S -0.025 | I 0.118 | W 0.004 | K 0.121 | C 0.122 | A -0.167 | E 0.129 | L -0.078 | Q -0.262 | P -0.919 | F -0.017 | V -0.1 | M 0.069 | D -0.26 | G -0.134 | N 0.286
W25: L -0.286 | S -0.246 | T 0.157 | Y -0.191 | Q -0.128 | G -0.425 | P -0.07 | C -0.558 | R -0.217 | K -0.206 | H -0.226 | D -0.121 | F -0.143 | I -0.038 | E -0.047 | V -0.102 | M -0.247 | N -0.377 | A -0.148
A21: T 0.043 | F -0.074 | K 0.019 | Q -0.311 | H -0.082 | C -0.009 | V -0.071 | G -0.084 | P -0.116 | I 0.04 | W -0.222 | R 0.053 | E -0.041 | M -0.162 | Y 0.13
C20: N -1.29 | D -0.541 | M -1.05 | L -0.974 | R -0.74 | W -0.827 | H -0.695 | E -0.931 | S -1.24 | A -1.01 | V -1.13 | T -1.05 | Q -1.01 | G -1.12
C17: W -1.27 | T -0.821 | Q -0.755 | P -1.13 | E -0.826 | G -0.99 | M -0.578 | D -0.986 | L -1.26 | A -1.09 | S -0.948 | V -0.878 | R -0.851 | F -1.14 | H -0.784 | I -0.869
V27: S -0.423 | C -0.192 | R -0.647 | K -0.434 | W -0.22 | H -0.516 | D -0.657 | Y -0.018 | E -0.17 | A -0.102 | F 0.027 | G -0.19 | I -0.119 | L -0.063 | P -0.297
F23: G -0.328 | R -0.242 | I -0.032 | A -0.433 | P -0.409 | V -0.132 | S -0.431 | L 0.105 | W 0.014 | T -0.503 | K -0.297 | C -0.166 | D -0.423 | H -0.706 | N -0.628 | E -0.333 | Y -0.074 | Q -0.204 | M -0.022
K13: W -0.131 | V -0.106
T15: N -0.336 | P -0.476 | K -0.391 | R -0.29 | I -0.162 | D -0.622 | M -0.146 | H -0.185 | Q -0.426 | C -0.327 | F -0.434 | G -0.607 | V -0.425 | A 0.105 | E -0.401 | S -0.181 | W -0.444 | L -0.236
F16: Q -0.243 | E -0.408 | Y 0.024 | T -0.33 | D -0.371 | A -0.085 | C 0.038 | V -0.385 | K -0.205 | S -0.285 | G -0.333 | N -0.175 | P -0.334 | L -0.487 | W -0.376 | H -0.148
I28: W -0.111 | K 0.065 | L -0.27 | V -0.056 | S -0.136 | N -0.243 | Y -0.199 | E -0.341 | C -0.223 | H -0.209 | Q -0.462 | R -0.084 | D -0.429 | T -0.116
Q30: R -0.519 | P -0.669 | N -0.495 | W -0.586 | A -0.597 | L -0.765 | S -0.54 | E -0.589 | I -0.872 | V -0.617 | Y -0.693 | H -0.663 | F -0.756 | G -0.52 | K -0.599
P14: E -0.886 | Q -1 | V -0.384 | H -0.687 | T -0.767 | D -0.38 | A -0.253 | L -0.296 | I -0.647 | G -0.449 | K -0.672 | Y -0.397 | F -0.364 | W -0.108 | R -0.739 | N -0.931 | C -0.235
N19: W 0.082 | S 0.05 | G 0.134 | C -0.061 | T -0.043 | A 0.065 | L -0.018 | H -0.02 | Q -0.29 | M 0.135 | F 0.068 | R -0.036 | E 0.11 | K -0.052 | D -0.101 | Y -0.142 | I -0.163 | V -0.02
D18: Y -0.315 | G -0.294 | V -0.132 | E -0.087 | Q -0.001 | S 0.028 | H -0.383 | T 0.205 | A -0.016 | R -0.059 | N -0.026 | I -0.142 | M -0.079 | L -0.013 | P -0.732 | C -0.253 | K -0.017 | W 0.123 | F -0.063
G22: Q -0.146 | K -0.278 | P -0.595 | Y -0.317 | V -0.482 | R -0.082 | M 0.105 | C 0.147 | E -0.164 | N -0.298 | I -0.154 | F -0.386 | D -0.189 | S -0.066 | H -0.078
L24: W -0.617 | F -0.006 | H -0.465 | R -0.375 | P -0.612 | K -0.333 | T -0.279 | A -0.396 | D -0.709 | N -0.303 | G -0.48 | E -0.369 | M 0.248 | V -0.241 | C -0.118 | S -0.325 | Q -0.424 | I -0.049 | Y -0.623
G26: T -0.529 | Q -0.462 | H -0.375 | M -0.345 | K -0.442 | L -0.452 | E -0.517 | D -0.449 | A -0.225 | I -0.946 | F -0.703 | C -0.563 | R -0.616 | N -0.562 | V -0.736 | W -0.269
